In the supplement of paper PMC9170038:

Test system: MS2 coat protein
Test: apparent KD of MS2 coat protein; designed switch direction (-1 OFF switch, 1 ON switch): 1; higher = weaker reporter binding
Summary of the method: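 Transcription of designed RNA switches on Illumina chips was done by stalled E. coli RNA polymerase. SNAP-549-labelled MS2 coat protein was then titrated in doubling steps from 0.7 or 1.5 nM to 3 µM, with steps of 0.8–1.5 h at the lowest and 10–20 min at the highest concentration. The per-design median over clusters of curve-fitted normalised fluorescence is reported as apparent KD.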

[1] = input ligand: microRNA oligo, concentration not stated
[2] = Eterna round: R95, input ligand: FMN 200 uM
[3] = Eterna round: R95, input ligand: microRNA oligo, concentration not stated
[4] = Eterna round: R95, input ligand: none

| Sequence | apparent KD of MS2 coat protein (input ligand: FMN 200 uM) [nM] | apparent KD of MS2 coat protein [1] [nM] | apparent KD of MS2 coat protein (input ligand: none) [nM] | apparent KD of MS2 coat protein [2] [nM] | apparent KD of MS2 coat protein [3] [nM] | apparent KD of MS2 coat protein [4] [nM] |
| --- | --- | --- | --- | --- | --- | --- |
| AAAACAUGACGAGGAUAUGGUACAUGAGGAUCACCCAUGUAUGUACCACGACGCGUACGUCGAAUCCAGAAGGCGUCGUGAAAA [Mat - Same State NG 2 - JL mod - D19] (Eterna round: R96, puzzle: Same State NG 2) | 20.3 | 68.5 | 74.1 |  |  |  |
| AAAAUACAUGAGGAUCACCCAUGUAGAAACUACACAGGAUAUCGGACGGCUGUAGCCGAACGAGAAGGGUGAACCC [Uszadi] (puzzle: Same State 1) |  |  |  | 205 | 228 | 313 |
| AAAAUGGCAUGUUACAUGAGGAUCACCCAUGUGCCGUCAACUGAGGAUAUGGUGCUGUAGAAGAAUCAGAAGGUAGUCAUUUAA [AK SSNG3-V2-27] (Eterna round: R96, puzzle: Same State NG 3) | 22.6 | 15.8 | 27 |  |  |  |
| AAACUACGUGCACAGGAUAUACGUUCCUAUACAUGAGGAUCACCCAUGUACCAACCGAAAAGGAAGUAGAAGGGUGUCCGUAAAC [Esardixequ] (puzzle: Same State 2) |  |  |  | 19.2 | 51.6 | 57.2 |
| AAACUACGUGCACAGGAUAUACGUUCCUAUACAUGAGGAUCACCCAUGUACCAACUGAAAAGGAAGUAGAAGGGUGUCCGUAAAC [Erbibearza] (puzzle: Same State 2) |  |  |  | 17.7 | 80.3 | 53.7 |
| AAAGAAGAAAGACAGGAUAUGGAUGGGUAAACAUGAGGAUCACCCAUGUAUAAGAAAGAAAGAAACCAGAAGGGUCAAAAGAAAA [Darius III] (Eterna round: R96, puzzle: Same State 2) | 68.7 | 217 | 253 |  |  |  |
| AAAGGACAUGAGGAUCACCCAUGUAGAAAAUACACAGGAUAUCGUCAUAUCGAAUUAUAAUGAGAAGGGUGCAAAA [Vebeinlala] (puzzle: Same State 1) |  |  |  | 59.9 | 273 | 124 |
| AAAGGAUGAUUAUACAUGAGGAUCACCCAUGUAAGUUAUACUAAGGAUAUGUGACUUAAUAGUUUACAGAAGGUAGGUUCAUGA [AK SSNG3-V2-2] (Eterna round: R96, puzzle: Same State NG 3) | 43.8 | 69.3 | 59.9 |  |  |  |
| AACAAUCUAUCUGAGGAUAUCAUGAAAAAAACAUGAGGAUCACCCAUGUGCAGGAAAACUGCAUAUGAGAAGGCAGAUAGAUUGA [SS2: 1101] (Eterna round: R96, puzzle: Same State 2) |  | 490 |  |  |  |  |
| AACAAUCUAUCUGAGGAUAUCAUGAAAAAAACAUGAGGAUCACCCAUGUGCAGGAAAACUGCAUAUGAGAAGGCAGAUAGAUUGA [salish99_SS2_r3_001] (Eterna round: R96, puzzle: Same State 2) |  | 490 |  |  |  |  |
| AACAAUCUAUCUGAGGAUAUCAUGAAAAAAACAUGAGGAUCACCCAUGUGCAGGAAAACUGCAUAUGAGAAGGCAGAUAGAUUGA [salish99_SS2_r3_001] (puzzle: Same State 2) |  |  |  | 20.6 | 484 | 741 |
| AACAAUCUAUCUGAGGAUAUCAUGAAAUAAACAUGAGGAUCACCCAUGUGCAGGAAAACUGCUUAUGAGAAGGCAGAUAGAUUGA [salish99_ss2_r3_047] (puzzle: Same State 2) |  |  |  | 10.3 | 12.6 | 12.2 |
| AACAAUCUAUCUGAGGAUAUCAUGAAAUAAACAUGAGGAUCACCCAUGUGCAGGUAAACUGCAUAUGAGAAGGCAGAUAGAUUGA [salish99_ss2_r3_040] (puzzle: Same State 2) |  |  |  | 60.1 | 314 | 571 |
| AACAGUCGACGAGGAUAUGGACGGACAGGUUUGCCUGUGCGGCUCACAUGAGGAUCACCCAUGUUCUAGAAGGCGUCACUGUGA [Matidia] (Eterna round: R96, puzzle: Same State NG 2) | 15.5 | 79.2 | 80.5 |  |  |  |
| AACAGUCGGCGAGGAUAUGGACGUACGAACUUACCCGUGCGGCUCACAUGAGGAUCACCCAUGUUCUAGAAGGCGCCACUGAAA [Atbeon] (Eterna round: R96, puzzle: Same State NG 2) | 12.2 | 63.4 | 88.8 |  |  |  |
| AACAUGAGGAUCACCCAUGUGAAAUACUGAGGCAGCUCAGGGAAGGAUAUGGUUGACACCCUCGACCAGAAGGUCCAAAAUAAA [Aquorxe] (Eterna round: R96, puzzle: Same State NG 3) | 80.8 | 108 | 143 |  |  |  |

| Sequence | apparent KD of MS2 coat protein (input ligand: FMN 200 uM) [nM] | apparent KD of MS2 coat protein [1] [nM] | apparent KD of MS2 coat protein (input ligand: none) [nM] | apparent KD of MS2 coat protein [2] [nM] | apparent KD of MS2 coat protein [3] [nM] | apparent KD of MS2 coat protein [4] [nM] |
| --- | --- | --- | --- | --- | --- | --- |
| AACCCAGUGGAAGGAUAUGGCACCUUAUUGGUGCCAGAAGGUCCUAACAUGAGGAUCACCCAUGUGGGCCGGUCGAAAGACCGG [Fiskers NG1ss - 10] (Eterna round: R96, puzzle: Same State NG 1) | 101 | 242 | 338 |  |  |  |
| AACCCGAAGGGAGGAUAUGGCACCUUAUUGGUGCCAGAAGGUCCUCACAUGAGGAUCACCCAUGUGGGCCGGUCGAAAGACCGG [Fiskers NG1ss - 12] (Eterna round: R96, puzzle: Same State NG 1) | 532 | 407 | 500 |  |  |  |
| AACGGUGCUUGAAAUAGUCACAUGAGGAUCACCCAUGUUAGGCAGGAUAUGUGUCUAAGACGACCGCAGAAGGGCUCAAGCGAU [Eternabot solution 41] (Eterna round: R96, puzzle: Same State NG 3) | 49.5 | 26.9 | 34.6 |  |  |  |
| AAGAAAGACGCAGGAUAUCAGUGCAGACCGCACUGAGAAGGGUGAGACAUGAGGAUCACCCAUGUAACACGACAAAACGUCGUG [Anritiat] (Eterna round: R96, puzzle: Same State NG 1) | 111 | 118 | 13.9 |  |  |  |
| AAGAAAUCCGCAGGAUAUCCUAAGCCGGGCUUAGGAGAAGGGUGGCCACAUGAGGAUCACCCAUGUAAAGGCUGAAUCACAGCC [Disois] (Eterna round: R96, puzzle: Same State NG 1) | 662 | 268 | 491 |  |  |  |
| AAGAAUCUAUCUCAGGAUAUCAUGUCAAAGACAUGAGGAUCACCCAUGUACCAGGAAACUGGUUAUGAGAAGGGAGAUAGAUUCU [Mat - Same State 2 - Mod - D32] (puzzle: Same State 2) |  |  |  | 99.4 | 30.6 | 282 |
| AAUAAUUUACAUGAGGAUCACCCAUGUGGUAAACAUGCUUUUUGCUCGUCUUAUGGUUUUUUUUUUUUUUUUUUUUU [viviankchen1] (puzzle: Sensor for hsa-mir-208a version 2) |  |  |  | 91 | 49.6 | 130 |
| AAUGUCUCACAUGAGGAUCACCCAUGUCUUUGGAUGAAGCUUUUUGCUCGUCUUCAUUUUGCUCGUCUUACCCAUGU [SBY_1] (puzzle: Sensor for hsa-mir-208a version 2) |  |  |  | 44.8 | 21 | 52.7 |
| AAUUAAGAUCAAGGAUAUCACGUCGAUUAGACGUGAGAAGGUGAUAAUUACAUGAGGAUCACCCAUGUAUAACAUGAAUUAAUU [SSNG1/9-B2] (Eterna round: R96, puzzle: Same State NG 1) | 31.8 | 23.9 | 33.5 |  |  |  |
| AAUUAUUAACAUGAGGAUCACCCAUGUAUUUUUUGCUCGUCAUGUAUUAUUAUUAUUAUUAUUAUUAUUAUUAUUAA [my first RNA] (puzzle: Sensor for hsa-mir-208a version 2) |  |  |  | 26.8 | 17.1 | 37.8 |
| AAUUUUAAACAUGAGGAUCACCCAUGUGUUAUAUAAGCAAAUAAAUAAAUAAAUAAAUAAAUAAAUAAAUAAAUAAA [RNA Sequence] (puzzle: Sensor for hsa-mir-208a version 2) |  |  |  | 34.1 | 40.2 | 44.5 |
| ACAAGACAUGAGGAUCACCCAUGUAUAAAUUACACAGGAUAUCGGUGGGCCGCGCCUACACGAGAAGGGUGACUUC [Gere] (puzzle: Same State 1) |  |  |  | 77 | 33.4 | 35.5 |
| ACAAGCUUUUCUGUAGUGAAAGGUGGGAUACAUGAGGAUCACCCAUGUAUUGUUGUCAAUAUUUGUCCUCGUCUUAU [JR_SHM208A_Sub086] (puzzle: Sensor for hsa-mir-208a) |  |  |  | 31.4 | 11 | 31.1 |
| ACAUGAAAUACAGGAUAUUUUGUACCUACAUGUGACAUGAGGAUCACCCAUGUGGUAAGUAUAAGAGAGAAGGGUAAGAUAUGU [Equivalence 4 - Jieux - Same State NG 2] (Eterna round: R96, puzzle: Same State NG 2) | 50.1 | 43.8 | 66.4 |  |  |  |
| ACAUGAAAUGCAGGAUAUUUUGUACCUACAUGUGACAUGAGGAUCACCCAUGUGGUAAGUAUAAGAGAGAAGGGUAAGAUAUGU [Equivalence 3 - Jieux - Same State NG 2] (Eterna round: R96, puzzle: Same State NG 2) | 60.6 | 48.3 | 72.3 |  |  |  |
